Assay results from the DeepSol protein solubility set.

test: soluble on expression in E. coli; label from the status in PepcDB or PDB records

| Sequence | soluble on expression in E. coli |
| --- | --- |
| MSLRTEFGRLQEHPIVDFKRGKEVTIYLNGKPVKAYEGETVAAALYAAGVRVFSRSFRWHRPRGFFCAIGKCSACMMEVDGIPNVRTCKVYVRDGMQVRTQSGMPDAEKDVFSILDDVIDKVFPHGSHYTKFTTSKKAREFMVKRMRKFTGFGNPPKAVFQGRAELEEIETDVLVIGGGPGGMSAAINAGKYGAKVLLVDENPFLGGQLVKQTHRFFGSAKERAGTRGIKIAGILEEELNSIENVEVRRETRVFGIYNGEAGAYQRLNDDEGKLLRIKAKKIVVATGAYERTLIFENNDLPGVYGAGGVQTLMNVYGIKPGNMGLIVGSGNVGLILTYQLMQAGVNVAAIVEAMPRIGGYFVHAAKVRRLGVPIYVRHTILKAIGRKSVEGAVIAQLDDRWQPIPGTEKEIKCDFICVAVGLSPTHELLYQAGCEMKFVPELGGIVPLRTRFNETSVKGLYVAGDVAGIEEATAAIMEGRIAGIHAAVTLGYGGEEAKKELDEAVKEIEEFRAGPFGERIVCGLEKCTLESEGHHHHHH | not soluble |
| MNSDDEIYMEGSASSEDDMDDECLSDDDGIARHDQSASDYLNKKDKDNEVLDHDSLEAEMKKAISEVEAVLQVKTGVCRILLHKYKWNKESLLERFYEHPDTIAFLIDAQVIPRQQEVIPAGDAECDICCSMDELSGLSCNHRACAECWQAYLTNKIVSDAQSEIECMAPNCKLLIEDEKVLSYISDPTMVSKYRKLMVASYVEINCLLRWCPGIDCGKAVKVSHWEPRLVVCSCGTCFCFSCGQNWHEPLNCRHLKKWIKKCQDDSETMNWINANTKDCPKCMIPIEKNGGCNRMLCTNSGCRYEFCWMCLEPWTKHGYQYACNGYDETAVKNPQDAQEISRANLKRYLFYFNRYMGHEQSLQLEGKLNIKVAKKMEQMENMSMSWIEVQFLRKAVDILSECRRTLMYTYAFAFYLKKDNNSIIFESNQANLEMETEQLSGFLERDLEDEDLVTLKQKVQDKYRYVEQRRKVLLDHCAEGAEQDIWQYND | not soluble |
| MAHHHHHHMRPTCVCAVRAVRMYVPMRVAATGGATPSAASPAGDNASTSSEVRAARRITEAVLSARAKHKLQHRQPSPPTPVPPSVRAKAKAPRSPASDIEEGVVKDTVTVEVQTAARLALSYGKSAFMTHLVHQHDDAHQRPGTVSASEWDQPMVSDAGEPEASVMTASSETCAVLPLRARTPTIPRAAAGTPGLQMAIDKWWRDLTDEARVRWITSTPQGRRALQHATKLAKFRNVSCGQGRSSNSGAHVVPSMESMLTKYKNTLAQPRLPRAAALAPSPKESILRMKLQDEKGASVSPSSKPTTVSSALAGMMHAASENNANRRLLRDRADAVRREEQRKLWHQALVQFLGGASAFTFVHDVKDLQQPRTEAEQAVKREPGAQSGGGAGRATTVAPNTPAATATGNATPEEMADDGAPVAFSDGLLDMCEGLGIRSPRRAYVLSRVLPEVDAANASEGPPLSLAEVQDLAKKCSTEYDELRDDAMRTARETGSASAEDAVRAFEREQLALAVARVQKKLVMFQENLPLLKRCVNVLSK | not soluble |
| MEEKKALRNRIKKLLRSQPEQQRKEGSQRVADILFSLPEWNEAHAIGITISLPHEVQTELIISRGWEEGKQIAVPRVKKGTTQMTFYEIHSFSVLEDTFFGLREPKPSECRQIDGQELDLLLVPGVAFDQKGNRLGYGGGYYDRFLHSYKGKTIALAYSQQLVESVPTDERDERVQMIVTERGVYRLEHHHHHH | soluble |
| MSLNKPLADRMRPIKLEDVVGQEHILSKNQILNKTLQAGHITNMIFYGPPGVGKTTVANIISNMTNKKLYKLNATNASIKDIQRIVAELDSFMTMNGVLLYLDEIQNFNKKQQQSLLEYIENGKITLIASTTENPYHYIYNAILSRSTVFEFKLLTKSNVIEGLKQVIKRINDEGKTLVEYEEEALDYIATASNGDLRRAMNALELAMYAAESENKEQVFLTIHIAQESTQKKVISYDKFGDQHYDILSAFQKSIRGTDPDAAIHYLARLVKAGDLNSICRRLLVIASEDIGLAYPTAITIVKSCVDAAMQVGFPEARINLAQATLVLATAPKSNSVIEAMDRALADLDQKDIGEIPTSLKDAHYKGASDLGRGVTYKYPHHYENNYIQQQYLPENIKNEKYYGSQNNKMEQRIFSYLEQLKKEGHHHHHH | not soluble |
| MSLSDDPMASIKLLNLERENSAIAQYQSNIANLKTTLSSQETHLDSVNESLKSMRDIVLWGANGSLTDQDRSGMITELKSYRDSIESSFNAQDEEGHFLFSGTKTDTAALNKSSGAYVVEGNSDVRVVTVAKGVTMDSNMTAQEILDIGGGKNVLNQIDALIAEFEKPSPNFQAEVDASLNAIDDTMANVLGAMTEIGGRHNNLDLMDGAHSENKLFVDKVSGDLSALDYGEASVRLSNYMAALQATQASYVKINDLSLFDREGHHHHHH | soluble |
